# “Also recorded” adds a separate entry of the source.
# Target: T1, HIV-1 Rev (Human immunodeficiency virus 1, UniProt P04618 P04618:1-116)
# Assay: filter; non-specific binding only
# Conditions: tags: none stated; heparin-Sepharose and Superose 6 purified; chain copies: oligomer (tetramer likely; about 4 per RBC6, 6-8 per full-length RRE at 50 mM KCl) stated; label: 32P uniform
row,Molecule,binding signal [% RNA bound at 10 nM rev]
1,"R49 (ssRNA, [none]) RNA: GGGAGACCGGAAUUCUGGGCGCAGUGUCAUUGACGCUGCGUACAGAAUUCCGGCA",2
2,"R45 (ssRNA, [none]) RNA: GGGAGACCGGAAUUCUGGGCGCAGUGUCAUUGACGCUGCGGACAGAAUUCCGGCA",6
3,"R46 (ssRNA, [none]) RNA: GGGAGACCGGAAUUCUGGGCGCAGUGUCAUUGACGCUGCGGUCAGAAUUCCGGCA",1
4,"R58 (ssRNA, [none]) RNA: GGGAGACCGGAAUUCUGGGCGCAGUGUCAUUGACGCUGCGAUACAGAAUUCCGGCA",6
5,"R40 (ssRNA, [none]) RNA: GGGAGACCGGAAUUCUCGGCGCAGUGUCAUUGACGCUGCGGUAGAGAAUUCCGGCA",3
6,"R53 (ssRNA, [none]) RNA: GGGAGACCGGAAUUCUGGGCGCAGUGUCAUUGACGCUGCGGUGCAGAAUUCCGGCA",5
7,"R41 (ssRNA, [none]) RNA: GGGAGACCGGAAUUCUGGGGGCAGUGUCAUUGACGCUGCCGUACAGAAUUCCGGCA",2
8,"R47 (ssRNA, [none]) RNA: GGGAGACCGGAAUUCUGAGCGCAGUGUCAUUGACGCUGCGGUACAGAAUUCCGGCA",6
9,"R56 (ssRNA, [none]) RNA: GGGAGACCGGAAUUCUGGGUGCAGUGUCAUUGACGCUGCAGUACAGAAUUCCGGCA",6

# Same assay, conditions: tags: none stated; heparin-Sepharose and Superose 6 purified; chain copies: oligomer (tetramer likely; about 4 per RBC6, 6-8 per full-length RRE at 50 mM KCl) stated; label: 32P uniform; stem-loop with G,G bulge
row,Molecule,binding signal [% RNA bound at 10 nM rev]
1,R36 (dG59-A61) (ssRNA) RNA: GGGAGACCGGAAUUCUGGGCGCAGUGUCAUUGACGCUGCGCAGAAUUCCGGCA,4

# Same assay, conditions: tags: none stated; heparin-Sepharose and Superose 6 purified; chain copies: oligomer (tetramer likely; about 4 per RBC6, 6-8 per full-length RRE at 50 mM KCl) stated; label: 32P uniform; stem-loop with altered bubble
row,Molecule,binding signal [% RNA bound at 10 nM rev]
1,R37 (ssRNA) RNA: GGGAGACCGGAAUUCUAAACGCAGUGUCAUUGACGCUGCGGUAUAGAAUUCCGGCA,5
2,R34 (dG35-G36) (ssRNA) RNA: GGGAGACCGGAAUUCUGCGCAGUGUCAUUGACGCUGCGGUACAGAAUUCCGGC,3

# Tested on: rev protein
# Assay: Saturation filter binding of rev to labelled RNA transcripts
# Parameters: species or system HIV-1
# Conditions: Table I; 10 nM rev, 50 mM KCl
# Procedure: Rev protein was expressed and purified as described (33) or further purified by chromatography on Heparin-Sepharose. Rev was applied to Heparin columns in a buffer containing 200 mM NaCl/50mM Tris-HCl pH8.0/1 mM DTT/0.1 mM EDTA 0.1% Triton X-100 and eluted in buffer containing 2M NaCl. After gel filtration on Superose 6 (prep grade) columns equilibrated with 200 mM NaCl/50 mM Tris-HCl pH8.0/1 mM DTT/0.1 mM EDTA, the rev protein appeared homogeneous on SDS-polyacrylamide gels and free of RNA contaminants. Rev concentrations were determined by amino acid analysis of the purified protein.
# DNA inserts containing RRE-related sequences were cloned between the EcoRI (5') and HindIII (3') sites of pGEM 1, either by cloning PCR products or by cloning annealed pairs of synthetic oligonucleotides. RNA transcripts for binding experiments were prepared by transcription of HindIII cut plasmids using T7 RNA polymerase and purified by gel electrophoresis. These transcripts carry a 5' extension of 15 nucleotides contributed by the vector and an extra A residue at the 3' end from the HindIII site, as described above.
# For filter binding assays, each reaction mixture contained 20 pg of uniformly labelled RNA probe (approximately 500 cpm/pg RNA), […] sonicated salmon sperm DNA, […] yeast tRNA, 40 units RNasin (Promega) in […] TK buffer (43 mM Tris-HCl pH8.0, 50 mM KCl). Incubation was at 4° C. for 15 minutes in the presence of 0 to 10 nM purified rev protein. To measure binding, each reaction mixture was applied under gentle vacuum to a 0.45 um Millipore filter which had been pre-wetted with TK buffer. The filters were washed with […] TK buffer, dried, and radioactivity counted by liquid scintillation.
# Filter binding assays contained 20 pg uniformly labelled RNA probe (500 dpm per pg RNA), 1 μg salmon sperm DNA, 0.45 μg yeast tRNA and 40 units RNasin (Promega) in 500 μl buffer containing 43 mM Tris-HCl pH 8.0, 50 mM KCl. Mutations in the purine-rich "bubble" sequence (numbered as shown in FIG. 2) were introduced into the R33 stem-loop structure (FIG. 3d) by site-directed mutagenesis.
row,Molecule,% RNA bound (10 nM rev) [%]
1,R36 (GGGAGACCGGAAUUCUGGGCGCAGUGUCAUUGACGCUGCGCAGAAUUCCGGCA; chemistry not given here),4
2,R37 (GGGAGACCGGAAUUCUAAACGCAGUGUCAUUGACGCUGCGGUAUAGAAUUCCGGCA; chemistry not given here),5

# Same assay, conditions: saturation filter binding of T7 transcripts; read-out: Kd for rev binding
row,Molecule,Kd [nM]
1,R22: residue A56 is deleted from R20 (GGGAGACCGGAAUUCUGGGCGCAGUGUCAUUGACGCUGCGGUACAGGCA; chemistry not given here),1 to 3
2,R19: transcript containing RRE sequences 33 to 66 (GGGAGACCGGAAUUCUGGGCGCAGUGUCAUUGACGCUGACGGUACAGGCA; unmodified RNA),1 to 3
3,R38: stem-loop structure C39 to A56 replaced by the stable loop sequence CUUCGG (GGGAGACCGGAAUUCUGGGCGCUUCGGCGGUACAGA; chemistry not given here),1 to 3

# Same assay, conditions: saturation filter binding, 0 to 10 nM rev
row,Molecule,"rev binding, result in words"
1,R30: base pairing in the upper stem structure altered to give the anti-sense sequence (GGGAGACCGGAAUUCUGGGCGCAGCGUCAUUGACACUGCGGUACAGGCA; chemistry not given here),normal rev binding activity
2,R36 (GGGAGACCGGAAUUCUGGGCGCAGUGUCAUUGACGCUGCGCAGAAUUCCGGCA; chemistry not given here),loss of rev binding
3,R37 (GGGAGACCGGAAUUCUAAACGCAGUGUCAUUGACGCUGCGGUAUAGAAUUCCGGCA; chemistry not given here),abolished specific rev binding
4,R29: residues altered in the apex of the loop to give the anti-sense sequence (GGGAGACCGGAAUUCUGGGCGCAGUGUCAAUGACGCUGACGGUACAGGCA; chemistry not given here),normal rev binding activity
5,"26-72: RRE fragment 26-72 T7 transcript (nucleic acid, unmodified RNA, RRE fragment 26-72 T7 transcript) GGGAGACCGGAAUUCAGCACUAGGGCGCAGUGUCAUUGACGCUGAGGGUACAGGCCAGACAAUUAUA",does not bind rev
6,"1-96: RRE fragment 1-96 T7 transcript (nucleic acid, unmodified RNA, RRE fragment 1-96 T7 transcript) GGGAGACCGGAAUUCCCUUGGGUUCUUGGGAGCAGCAGGAAGCACUAUGGGCGCAGUGUCAUUGACGCUGACGGUACAGGCCAGACAAUUAUUGUCUGGUAUAGUGCAACA",same affinity as the full-length RRE sequence
7,"26-92: RRE fragment 26-92 T7 transcript (nucleic acid, unmodified RNA, RRE fragment 26-92 T7 transcript) GGGAGACCGGAAUUCAGCACUAUGGGCGCAGUGUCAUUGACGCUGACGGUACAGGCCAGACAAUUAUUGUCUGGUAUAGUGCA",same affinity as the full-length RRE sequence; also recorded: Identical binding behaviour

# Tested on: rev protein
# Assay: Competition filter binding against 32P-labelled R7 (FIGS. 13, 17)
# Parameters: species or system HIV-1
# Conditions: 1.5 nM labelled R7, 24 nM rev, 0-60 nM competitor
# Procedure: In these experiments, uniformly ^32 P-labelled R7 (1.5 nM) was competed against 0-60 nM unlabelled competitor RNA in the presence of 24 nM rev protein.
# The mixtures for competition binding (0.5 ml) included 1.5 nM ^32 P-labelled R7 (ca. 20,000 cpm), 24 nM rev protein, 1.5 ug/ml calf thymus DNA, 0.67 ug/ml yeast rRNA, varying concentrations (0-60 nM) of unlabelled competitor RNA and 80 units/ml RNasin in TK buffer (50 mM Tris-HCl (pH7.9) and 20 mM KCl). Binding was allowed to take place for more than 15 min on ice, and each mixture was passed through a Millipore GS filter (a 2.5 cm disk with a pore size of 0.22 um) prewashed twice with 0.6 ml of ice-cold TK buffer. The filter was washed with 0.6 ml of cold TK buffer and dried. The radioactivity retained on the filter was counted by liquid scintillation, and the results were plotted on a graph (FIG. 13).
row,Molecule,"competition for rev binding against labelled R7, result in words"
1,"RBC4: chemically synthesized RNA duplex, purine-rich bubble with 4 base pairs in the stem on each side (chain 1 UGUGGGCGCA; chain 2 UGCGGUACAC; RNA, backbone not given here)",no competitive binding abilities
2,"RBC5: chemically synthesized RNA duplex, purine-rich bubble with 5 base pairs on each side (chain 1 GUGUGGGCGCAG; chain 2 CUGCGGUACACA; RNA, backbone not given here)",less
3,"TWJ-C: three annealed synthetic oligoribonucleotides forming bubble stabilized by three-way junction; U85 replaced by C (chain 1 GCACUAUGGGCGCAGC; chain 2 GCUGCGGUACAGGCCAGA; chain 3 UCUGGCAUAGUGC; RNA, backbone not given here)",compete for rev binding with the same affinity
4,"RBC2-6X: only two oligonucleotides annealed, containing all sequences from the bubble region (chain 1 GCACUAUGGGCGCAGC; chain 2 GCUGCGGUACAGGCCAGA; chemistry not given here)",not sufficiently stable to form an effective rev binding site
5,"TWJ-U: three annealed synthetic oligoribonucleotides forming three-way junction; authentic HIV-1ARV2 sequence with G:U base pair (chain 1 GCACUAUGGGCGCAGC; chain 2 GCUGCGGUACAGGCCAGA; chain 3 UCUGGUAUAGUGC; RNA, backbone not given here)",compete for rev binding with the same affinity

# Same assay, conditions: 1.5 nM labelled R7, 24 nM rev, 0-60 nM competitor; listed as RBC2,6X
row,Molecule,"competition for rev binding against labelled R7, result in words"
1,"RBC2-6X: only two oligonucleotides annealed, containing all sequences from the bubble region (chain 1 GCACUAUGGGCGCAGC; chain 2 GCUGCGGUACAGGCCAGA; chemistry not given here)",unable to compete effectively

# Target: T1, HIV-1 Rev
# Assay: competition; D1/2 vs labelled RRE RNA, 17 nM rev
# Conditions: tags: none stated; heparin-Sepharose and Superose 6 purified; chain copies: oligomer (tetramer likely; about 4 per RBC6, 6-8 per full-length RRE at 50 mM KCl) stated; label: 32P uniform; stem-loop with altered bubble
row,Molecule,IC50 [nM]
1,R34 (dG35-G36) (ssRNA) RNA: GGGAGACCGGAAUUCUGCGCAGUGUCAUUGACGCUGCGGUACAGAAUUCCGGC,> 250
